# Experimental data reported in the supplement of paper PMC9170038.
# Key:
# MS2 coat protein [1] = experiment: apparent KD of MS2 coat protein, switch ON state; designed switch direction (-1 OFF switch, 1 ON switch): -1; higher = weaker reporter binding; conditions: FMN input: 0 or 200 uM; Eterna round: R93 (includes R88 designs)
# Procedure, shortened: (§1)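 Illumina sequencing clusters were used for on-chip transcription of designed RNA switches. Titration with SNAP-549-labelled MS2 coat protein followed, in twofold steps from 0.7 or 1.5 nM to 3 µM in 100 mM Tris-HCl pH 7.5, 80 mM KCl, 4 mM MgCl2, without or with constant ligand. Apparent KD is each design's median of fits to normalised cluster binding curves.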
# MS2 coat protein [2] = experiment: apparent KD of MS2 coat protein, switch OFF state (with FMN for OFF switches, without FMN for ON switches); designed switch direction (-1 OFF switch, 1 ON switch): -1; higher = weaker reporter binding; conditions: FMN input: 0 or 200 uM; Eterna round: R93 (includes R88 designs)
# Procedure, shortened: as §1
# MS2 coat protein [3] = experiment: apparent KD of MS2 coat protein; designed switch direction (-1 OFF switch, 1 ON switch): 1; higher = weaker reporter binding
# Procedure, shortened: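 Apparent KD, taken as the median over clusters for each design, was obtained by curve-fitting normalised cluster fluorescence. Designed RNA switches had been transcribed on Illumina chips by stalled E. coli RNA polymerase and titrated with SNAP-549-labelled MS2 coat protein, doubling from 0.7 or 1.5 nM to 3 µM.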
Sequence,apparent KD of MS2 coat protein (MS2 coat protein [1]),apparent KD of MS2 coat protein (MS2 coat protein [2]),apparent KD of MS2 coat protein (MS2 coat protein [3]; input ligand: FMN 200 uM),"apparent KD of MS2 coat protein (MS2 coat protein [3]; input ligand: microRNA oligo, concentration not stated)",apparent KD of MS2 coat protein (MS2 coat protein [3]; input ligand: none)
AAAAAGUUAGGAUAUACAUGAGGAUCACCCAUGUACAUAAAUGGAGAAAAAAACAGUAGUAGAAGGGACAAAAA [EX2 Malc#11],23.8 nM,22.2 nM,–,–,–
AGCUAGCGAGGAUAUACGAACAUGUCAAAAGACGUGAAGGGACAUGAGGAUCACCCAUGUAGAAGGUGCUAGCA [JL 74% mod 7],31.8 nM,70.3 nM,–,–,–
AAAAAACAUGAGGAUCACCCAUGUGAGGAUAUCGUAAACAAAAAAAACAAAAACAAAUCGAGAAGGCACAAAAA [Amethyst 34],21 nM,35.1 nM,–,–,–
AAAAAACAUGAGGAUCACCCAUGUAAGGAUAUGCAAAAUAAAAGAAAUAAAAAGAAAAGCAGAAGGUACAUUAA [JL wbt mod 9],23.6 nM,37.9 nM,–,–,–
AAAAAACAUGAGGAUCACCCAUGUGAGGAUAUCGCUAGUCAGUCAUCAGAGUGAGUGAUGAGAAGGCACAUAAA [Brourd 613 Mod 6 - Jieux - Exclusion 1],26.3 nM,31.9 nM,–,–,–
UAAAGACAUGAGGAUCACCCAUGUGAGGAUAUAGGUGUAUGCAAAAAAAAGCAAAAAACUAGAAGGCACAGAAA [JR_Exc001_Sub304],59.6 nM,68.9 nM,–,–,–
AAAAAGGCAGGAUAUACGAAACUAAGACAAAUAAGAAAGGGACAUGAGGAUCACCCAUGUAGAAGGGCCAAAAA [Exclusion 2-01... 60% 4],49.1 nM,70.1 nM,–,–,–
UCCUCACAUGAGGAUCACCCAUGUGAGGAUAUGUACAUCAGGAAAAAAAAACUGAUGUACAGAAGGCACAUGAA [Design 10: Super Stable G-C 3],13.3 nM,16.5 nM,–,–,–
AAGAAUCGAGGAUAUACAAAAUAAAAGAAAAGAAAGAAAGAACAUGAGGAUCACCCAUGUAGAAGGCGAAAGAA [Khaneferre Sobekhotep IV],30.3 nM,21.9 nM,–,–,–
AAAAAAAGAGGAUAUACGAACAUGUCAAAAGACGUGAAGGGACAUGAGGAUCACCCAUGUAGAAGGCUUAAAAA [JL Part Open 28],38.7 nM,26.3 nM,–,–,–
AGGAAACAUGAGGAUCACCCAUGUGAGGAUAUAGAAAAGAAAAGAAAAGAAAGAAGAACUAGAAGGCACAAGAA [Neheb],31.2 nM,28.8 nM,–,–,–
AAAAAGAUAGGAUAUACGUACAUGUCAAAAGACGUGAAGGGACAUGAGGAUCACCCAUGUAGAAGGAUUAAAAA [JL Wide Open 40],31.6 nM,20.1 nM,–,–,–
AGCUAGUCAGGAUAUACGAACAUGUCAAAAGACGUGAAGGGACAUGAGGAUCACCCAUGUAGAAGGGACUAGCA [WEB mod],35.4 nM,138 nM,–,–,–
AAAACGUCAGGAUAUACAGAAGAGAUCACAAAAAAAAAAAAACAUGAGGAUCACCCAUGUAGAAGGGACAAAAA [Ex2 Malc#2],111 nM,115 nM,–,–,–
AGCAAGAGAGGAUAUACAUAGGAAAAAAAAGUUAGAUCCCUACAUGAGGAUCACCCAUGUAGAAGGCUCUGGCA [Ex2 Design 153: Sub-opt 17],42.2 nM,37.1 nM,–,–,–
AAGAAGGGAGGAUAUACAAAAUAAAAGAAAAGAAAGAAAGAACAUGAGGAUCACCCAUGUAGAAGGCUCAAGAA [Mersekhemre Ined],37.2 nM,24.9 nM,–,–,–
AAAAAACAUGAGGAUCACCCAUGUGAGGAUAUGCAAAAAAAAAAAAAAAAAAAAAAAAGCAGAAGGCGCAAAAA [4 GC Strong],20.6 nM,38.9 nM,–,–,–
AGGAUGUCAGGAUAUGUGUAAAGAAUAAAACAAAUAACAACACAGAAGGGACAUGAGGAUCACCCAUGUUACCA [May 37],19.9 nM,20.9 nM,–,–,–
AUUAUGUAAGGAUAUGAGUGAACAACAAAACAAAUAACGACUCAGAAGGUACAUGAGGAUCACCCAUGUAUAAA [May 70],28.9 nM,21 nM,–,–,–
"AGUUGGCGAGGAUAUACAUGAGGAUCACCCAUGUAAAAUAAUGAAAAAGUAGGGAAAAGUAGAAGGCGCUGACA [73%, Moding Norbert Elias, 19]",36.2 nM,96.7 nM,–,–,–
AAAUUGUCAGGAUAUCUUAGAAUAGUCAAAGACUAGAGCUAAGAGAAGGGACAUGAGGAUCACCCAUGUAAAAC [May 91],61.8 nM,56.6 nM,–,–,–
AGCUAGUCAGGAUAUACGAAAACGAACGAAGCUGAGAAGGGACAUGAGGAUCACCCAUGUAGAAGGGACUAGCA [Diamond 33],36.4 nM,107 nM,–,–,–

Sequence,apparent KD of MS2 coat protein (MS2 coat protein [1]),apparent KD of MS2 coat protein (MS2 coat protein [2]),apparent KD of MS2 coat protein (MS2 coat protein [3]; input ligand: FMN 200 uM),"apparent KD of MS2 coat protein (MS2 coat protein [3]; input ligand: microRNA oligo, concentration not stated)",apparent KD of MS2 coat protein (MS2 coat protein [3]; input ligand: none)
AACAAUACAGGAUAUACAUGAGGAUCACCCAUGUGAGAAUUAAGUGGCGUACCACAAGGUAGAAGGGUAAUGGA [Ruby 2],22.4 nM,34.7 nM,–,–,–
AAGAAAGCAGGAUAUACAAGAAAGAAAGAAAAGAAAAGAAAACAUGAGGAUCACCCAUGUAGAAGGGCUUAGAA [EteRNA is fun!],27.9 nM,23.1 nM,–,–,–
AACUGACAUGAGGAUCACCCAUGUCAGGAUAUGACUUGACGAAAAAAAACACGUCAUGUCAGAAGGGACAUGGA [Design 89: Sub-opt Z],21.8 nM,37.3 nM,–,–,–
AAGUUGCUAGGAUAUACUUGGGCAACAAAUAAACUAAUAUAACAUGAGGAUCACCCAUGUAGAAGGAGCAGAAA [JR_Exc002_Sub206],31.8 nM,34.9 nM,–,–,–
AAAAAGGGAGGAUAUACAUGAGGAUCACCCAUGUAAAAAAAAACAAAAAAAAAAAAAAGUAGAAGGCCCAAAAA [here you go],52.3 nM,37.5 nM,–,–,–
CCUAUGUCAGGAUAUCAGUAGUAAAAAAAAAAAAUUACUACUGAGAAGGGACAUGAGGAUCACCCAUGUCACUU [EX4 311: Super Stable 11],28.5 nM,18.8 nM,–,–,–
"AAGUUACAUGAGGAUCACCCAUGUGAGGAUAUGUGUAUCCCUAAAAAAGUGUGGGACCACAGAAGGUACUUGGA [Mod 2 of Atanri by ViennaUCT, Round 1]",42.9 nM,44.5 nM,–,–,–
AAAAAACAUGAGGAUCACCCAUGUGAGGAUAUACAAAGAAAGACAGGCAAGUAAAGAGGUAGAAGGCGCAAAAA [Default title],15.4 nM,18.2 nM,–,–,–
GAAAAGUCAGGAUAUACAGAAAAAAAAACGAAAAAAAAUCUGUAGAAGGGACAUGAGGAUCACCCAUGUAAAAG [Mat - Exclusion 4 - Mayanna - D123],52.6 nM,38.7 nM,–,–,–
AGGGAGUAAGGAUAUGAGAAAUAAAAAGAAGGAAAAAAAGAUCAGAAGGUACAUGAGGAUCACCCAUGUGGGAA [milkweed 10],43.1 nM,39.9 nM,–,–,–
AAAGGACAUGAGGAUCACCCAUGUGAGGAUAUCGGAAAAGGAAAAAAAAAAAAGAAGACGAGAAGGCACACCAA,38.8 nM,55.6 nM,–,–,–
AAGAACAGAGGAUAUACAUGAAAGAAAGAAAAGAAAAGAAAACAUGAGGAUCACCCAUGUAGAAGGCUGAAGAA [EteRNA is fun!],28.1 nM,25.1 nM,–,–,–
AAAAAUGGAGGAUAUACAUGAGGAUCACCCAUGUGAAACAAAACAAAACACAAAAAAAGUAGAAGGCCAAAAAA [Gilly Gone Silly 4 - Jieux - Exclusion 3],33.1 nM,38.2 nM,–,–,–
AAAAAACAUGAGGAUCACCCAUGUGAGGAUAUGCAAAACCCAUAUAAAAAGGGAAAAAGCAGAAGGCACAAAAA [Starry Exclusion 1.3 (wbt round 1 mod)],22.8 nM,55.8 nM,–,–,–
AAGAAGUCAGGAUAUGCCAAAGGUCACGAAAGUGACAAAGGGCAGAAGGGACAUGAGGAUCACCCAUGUAAAGA [Opal 2],47.2 nM,56.7 nM,–,–,–
AAAAAACAUGAGGAUCACCCAUGUGAGGAUAUCCUAAAGGGAAUAAAAUAACUCAAAAGGAGAAGGCGCAAAAA [Ex 1 May 31],60.2 nM,46.3 nM,–,–,–
AAGAAGUGAGGAUAUGUCUGUGCGAAAAAAAAAAAGUGCAGACAGAAGGCACAUGAGGAUCACCCAUGUGGAAA [Florian 65% 5],27.8 nM,29.1 nM,–,–,–
AACUAACAUGAGGAUCACCCAUGUCAGGAUAUGCAAAGAACGAUCGAACGAACGAUAAGCAGAAGGGACAAAAA [Amethyst 96],29.8 nM,42.1 nM,–,–,–
AGCUAGUCAGGAUAUACGAACAUGUCAAAAGACGUGAAGGGACAUGAGGAUCACCCAUGUAGAAGGGACUAGCU [salish99-Ex2-20],28.8 nM,106 nM,–,–,–
AGAACGUCAGGAUAUCCAACAACAAGUAAAUAGAGAAGAAGGGAGAAGGGACAUGAGGAUCACCCAUGUAAGAA [e4-2],–,29.9 nM,–,–,–
"AGAGGAGGAGCAGGAUAUUCGAAGAAGGACGUGGAAGAAGGGUUCAUGCGAUGACAUGAGGAUCACCCAUGUACCGCGCGUUGA [AK SSNG1-V2-14] (Eterna round: R96, puzzle: Same State NG 1)",–,–,185 nM,78.6 nM,156 nM
